Measured values taken from PMC2118910.

Tests used:
Test in all cases: cell-cell adhesion assay
[1] = target: human CD8 alpha mutant M9 (human) (UniProt P01732)
[2] = target: human CD8 alpha mutant M5 (human) (UniProt P01732)
[3] = target: mouse CD8 alpha (Lyt-2) (mouse) (UniProt P01731)
[4] = target: human CD8 alpha mutant M6 (human)
[5] = target: human CD8 alpha mutant M10 (human)
[6] = target: human CD8 alpha mutant M2 (human) (UniProt P01732)
[7] = target: human CD8 alpha mutant M1 (human)
[8] = target: human CD8 alpha mutant M8 (human) (UniProt P01732)
[9] = target: human CD8 alpha mutant M4 (human) (UniProt P01732)
[10] = target: human CD8 alpha mutant M7 (human)
[11] = target: human CD8 alpha mutant M3 (human)

Sequence of UniProt P01731 (P01731 28-247): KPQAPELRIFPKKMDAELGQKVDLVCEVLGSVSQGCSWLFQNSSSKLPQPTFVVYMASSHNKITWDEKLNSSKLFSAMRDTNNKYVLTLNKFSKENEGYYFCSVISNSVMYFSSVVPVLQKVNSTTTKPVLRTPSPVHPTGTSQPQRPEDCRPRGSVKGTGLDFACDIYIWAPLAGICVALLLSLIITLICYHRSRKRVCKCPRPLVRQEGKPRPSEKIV

percent binding relative to wild type [1]: 56.9%
percent binding relative to wild type [2]: 11%
percent binding relative to wild type [3]: -0.6 to 5.8%
percent binding relative to wild type [4]: 49.1%
percent binding relative to wild type [5]: 42.6%
percent binding relative to wild type [6]: 1.7%
percent binding relative to wild type [7]: 15.7%
percent binding relative to wild type [8]: > 80%
percent binding relative to wild type [9]: > 80%
percent binding relative to wild type [10]: 31.3%
percent binding relative to wild type [11]: 13.5%
Substance: HLA class I on the human B lymphoblastoid cell line UC
